Source: US20170168078A1

Legend:
[1] = target: human folate receptor delta (FRΔ) expressed on CHO cells (human) (UniProt A6ND01); assay: flow cytometry on cells expressing FRΔ, antibody 1 µg/mL (parental CHOK1: 5.9)
[2] = target: human folate receptor delta (FRΔ) expressed on CHO cells (human) (UniProt A6ND01); assay: flow cytometry on cells expressing FRΔ, antibody 1 µg/mL (parental CHOK1: 5.7)

human folate receptor delta (FRΔ) expressed on CHO cells (human), sequence (A6ND01 20-228, stated change not applied): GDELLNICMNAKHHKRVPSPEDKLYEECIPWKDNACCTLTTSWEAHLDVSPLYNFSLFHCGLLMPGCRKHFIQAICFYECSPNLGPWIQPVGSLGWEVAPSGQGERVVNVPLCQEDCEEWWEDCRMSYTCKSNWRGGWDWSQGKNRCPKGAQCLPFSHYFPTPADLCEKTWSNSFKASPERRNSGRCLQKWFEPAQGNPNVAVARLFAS

Binder | Geometric Mean [1] | Geometric Mean [2]
Monoclonal antibody 9F3.H9.H3.H3.B5.G2 (antibody, mouse IgG2a, V domains shown) VH: ESGPGLVRPSQSLSLTCSVTGYSITSGYYWNWIRQFPGSRLEWMGYIKSDGSNNYNPSLKNRISITRDTSKNQFFLKLNSVTTEDTATYFCTREWKAMDYWGQGTSVTVSS VL: PAIMSASPGEKVTMTCRASSTVSYSYLHWYQQKSGASPQLWIYGTSNLASGVPARFSGSGSGTSYSLTISSVEAEDAATYYCQQYSGYPLTFGAGTKLELKR | 5.6 | 
Monoclonal antibody 26B3.F2 (antibody, mouse IgG1, V domains shown) VH: GPELVKPGASVKISCKASDYSFTGYFMNWVMQSHGKSLEWIGRIFPYNGDTFYNQKFKGRATLTVDKSSSTAHMELRSLASEDSAVYFCARGTHYFDYWGQGTTLTVSS VL: PASLSASVGETVTITCRTSENIFSYLAWYQQKQGISPQLLVYNAKTLAEGVPSRFSGSGSGTQFSLKINSLQPEDFGSYYCQHHYAFPWTFGGGSKLEIKR |  | 5.4
Monoclonal antibody 24F12.B1 (antibody, mouse IgG1, V domains shown) VH: SGGGLVRPGGSLKLSCAASGFTFSSYAMSWVRQSPEKRLEWVAEIGSGGSYTYYPDTVTGRFTISRDNAKSTLYLEMSSLRSEDTAIYYCARETTAGYFDYWGQGTTLTVSS VL: TSSLSASLGDRVTISCSASQGINNFLNWYQQKPDGTVKLLIYYTSSLHSGVPSRFSGSGSGTDYSLTISNLEPEDIAIYYCQHFSKLPWTFGGGTKLEIKR | 5.9 | 
